Measurements as given in doi:10.1101/2021.12.15.472864 (bioRxiv, 2021).

Biological target: SARS-CoV-2 spike receptor-binding domain (RBD), residues 333-529 (SARS-CoV-2, UniProt P0DTC2)
Assay: crystal structure

B1: ADI-62113 Fab (Fab, V domains shown)
VH: QVQLQQSGAEVKKPGASVKLSCKASGYTFSVFPIHWVRQAPGQRLEWMGWHNAGDGDTKYSQKFQGRVTIISDTSASTAYMELSSLKSEDTAVYYCARAARPYYDRRGYFFRADYFQHWGQGTLVTVSS
VL: DIQVTQSPSSLSASVGDRVTITCQASQDIKNSLNWYQQKPGKAPKLLISDASNLETGVPSRFSGNGSGTDFTFTISSLQPEDIATYYCQQYDNLITFGPGTKVEIK
  binding result: binds
